± gives the uncertainty stated by the source.

This data set can be described thus: amyloid nucleation score (Sup35N fusion, yeast selection) (log enrichment); library NNK1; higher = more nucleation; inactive = no reads after selection. Summed up:
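The nucleation score is a DiMSum log enrichment of output over input reads, centred on the mode score of non-aggregating sequences. Sequences under 100 input reads were excluded, and reads came from Illumina sequencing of plasmid inserts. Psi-negative yeast expressing Sup35N fused to peptides of 20 random codons were induced with 100 μM copper sulfate for 24 hours and grown 7 days at 30°C on medium lacking adenine and uracil. Random libraries had three technical output replicates.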
Substance SLILG had an amyloid nucleation score of 0.083 ± 0.3. With LITWCIVVAWCIIVTREA the figure was 2.84 ± 0.12; with SNKFKPVWRVLMSRVSVEAW, -0.133 ± 0.68. Next, RLPLMNWFTAMA: 0.037 ± 0.42. As to LYAVLDILVMFMLMSPP, the amyloid nucleation score was 0.253 ± 0.36. With AVSDVTVIRRCMFIG the figure was 0.448 ± 0.47; with HIGGTFVWLEFPCKWGLTED, 4.46 ± 0.069. For the substance NCRMGR, the amyloid nucleation score was -0.016 ± 1.7. The substance RLNDNRYSYVVVS showed an amyloid nucleation score of -0.127 ± 0.64. Substance LYPLMEGDRKKL showed an amyloid nucleation score of 0.981 ± 0.47. Next, SLAPLHLFERMGGRS: 0.532 ± 0.86.

In the case of PRRQETWANEGHGM, the amyloid nucleation score amounted to 0.426 ± 0.93.

As for FVSIRCVKYASYISHSHGLV, the amyloid nucleation score result was “inactive”.

As for MDNGTESPLE, the amyloid nucleation score is 1.15 ± 0.72.

On to FAGLSHWKPLDGTMGVGDRV, for which the amyloid nucleation score is -0.526 ± 0.41. With YYGFWICFNYVGTGVKISCA the figure was 3.38 ± 0.075; with SARSWDLQMCFSCLYR, 7.28 ± 0.08. In the case of YWSVQG, the amyloid nucleation score was 0.647 ± 0.75. Next, FKVSVALSWDDVSQFGYGYG: 0.117 ± 0.65; NGCVLLMVMVLTVDIAL: 2.78 ± 0.18; KGMLLCYFPNKCPAWEAKCG: 5.17 ± 0.059. Next, ISLIFHVMNDLWCIAIELGS: 0.183 ± 0.59; SNILFLYRMKRALPNSSWEA: 0.152 ± 0.48; IGITRILFVFFIDTATIKNG: -0.855 ± 0.43. With TYMTSTMQLRHTFFRSQANL the figure was 2.7 ± 0.098; with WTQPVYLAEEGLRVLDNPKA, “inactive”; with AVYFSSFR, 0.522 ± 0.33. On to AGYFCL, for which the amyloid nucleation score is -0.449 ± 0.47.

Substance VIHYSGLSMVAVQ returned an amyloid nucleation score of -0.379 ± 0.49. For MFLIGFDGTYERSSLF, the amyloid nucleation score is -0.106 ± 1.7. ISSILFLQCLSWGGNR returned an amyloid nucleation score of 5.38 ± 0.095. YRDSGDRNLGIAPI had an amyloid nucleation score of 0.449 ± 0.97.

Consider RGSIRIKDMTCGLEIGIALR, for which the amyloid nucleation score was -0.001 ± 0.44. In the case of NLLWCIVGTKPWKVLTTVNY, the amyloid nucleation score is -0.28 ± 0.38. Next, DIERMKVPELFCLLSLDTGP: -0.376 ± 1.7; NYVPIWSGA: “inactive”. The substance RSFLMPDE showed an amyloid nucleation score of 0.307 ± 0.46.

ECGYFRLVSGERYTPVSSMR returned an amyloid nucleation score of -0.139 ± 0.37. With SIYSRGSVLANPCSFYAEVR the entry was “inactive”.

Regarding GACYNSGCCFNPLDWYK, the amyloid nucleation score stood at 0.904 ± 0.57. With LCGTMWAG the figure was 0.62 ± 0.51.

Take WRRNGNAGMSNQCWVRVKFK: the amyloid nucleation score is 0.775 ± 0.46. In turn, MTAPHFLYLKRPHRPTRPDL gave an amyloid nucleation score of 0.898 ± 0.58. With DYGDYCAKWTQSYNALTVRF the figure was 0.594 ± 0.58; with NPSGFRSTEWYV, -0.421 ± 0.56.

The substance VLCSMDSVGSSGASGIFTYM yielded an amyloid nucleation score of -0.025 ± 0.4. VPLRTWLITWLGYNSHNWLC yielded an amyloid nucleation score of -0.302 ± 0.76. For YYKCMATQVVGLLMSVWATY, the amyloid nucleation score worked out at 1.06 ± 0.85. Next, YRTVSDTVAY: 1.42 ± 0.79; RGGKGPRFVYNRFISRAAGR: -0.869 ± 0.74. With LKLLFVTLKMLASMFFRGS the figure was -1.28 ± 0.77; with YSYSVAV, 0.38 ± 0.51; with SFDRLMCRAM, 0.688 ± 0.88.

For SFWWSDATMFEFVKGSRSGK, the amyloid nucleation score result is “inactive”. FENDWNLINLLGF gave an amyloid nucleation score of 1.49 ± 0.55. For RRGSNDDSYHRRQVDRKPMA, the amyloid nucleation score is 0.166 ± 0.66. Next, DNTHSSFIHFETGKKYYA: 0.319 ± 0.78; TPDHLWLWLFYLNCNTENYG: 7.757 ± 0.046; VRLRDVILSKVATMSF: -0.363 ± 0.27. Take SFSYLIFTTVLLVWW: the amyloid nucleation score was determined as 0.549 ± 0.34. With GFYPHANLTMFRALNKCGEV the figure was 0.501 ± 0.53; with GNNGVEKPKNHISGELFGTN, -0.138 ± 0.35. With DSGDEGVIVSVSHGWTSEGL, the amyloid nucleation score was found to be 0.443 ± 0.81. With GLLNR the figure was 0.435 ± 0.19. In turn, CQDGLDNLNCGAMVYFVVGD came in with an amyloid nucleation score of 2.25 ± 0.22.

YRPIDFLIPYSSVML: the amyloid nucleation score result was “inactive”. With QDRNVSWLYIGSVTGRRVAG the figure was 0.488 ± 0.66. Substance QSRSL returned an amyloid nucleation score of 0.703 ± 0.66. RYDPMLWINLYCFLITGG: the amyloid nucleation score turned out to be 0.334 ± 0.39. Next, TTVGNVFSGVHV: 0.027 ± 1.7; VDQVQDNLKFEIGKYSYWYS: 0.128 ± 0.27. Next, KFSCGTFSLRHPT: 0.725 ± 0.52.

In turn, RLMRHNMPTVVEHAGSSRSN gave an amyloid nucleation score of -0.132 ± 0.31. In turn, IVVKV yielded an amyloid nucleation score of -0.035 ± 0.97. FKCYWAVCIELWYGCSTVGL gave an amyloid nucleation score of 0.588 ± 1.2.

With WPVLFFI, the amyloid nucleation score is -1.46 ± 1.8. Next, LRKSWVQSKHCDIRPDSKAL: 0.693 ± 0.68; YIRGYTIFSNWCFGLASGSA: -0.525 ± 0.83; HLRRYMDRYRRGQYGFSYFW: 1.09 ± 0.64. With VTSLYQDVT the figure was -2.31 ± 2.4; with CNYSSSTVGYRSDMRVCSDT, 0.405 ± 0.61; with LVCRYFRNRWMPSTRWGVHS, 0.711 ± 0.85. DLYFIKDSTLCTISLFLIYW registered an amyloid nucleation score of 0.324 ± 1.2. Next, EHNNFFICVCWSAGTSVRMI: 7.992 ± 0.063; SALNSSRGKFICSRRCHGEE: 0.078 ± 0.23; RYHPMG: -0.074 ± 0.93. With NGVMESGNRRTLLRPTVVET the figure was -0.016 ± 1.2; with LQEVSWYSTVALTLSNLKWG, -0.389 ± 0.46. Regarding QVVRIYQVQGLWIMVHR, the amyloid nucleation score was 1.96 ± 0.28.

As for WSISGELFTVVSDWPFCPIG, the amyloid nucleation score result was “inactive”. In turn, FYGCNSRA displayed an amyloid nucleation score of -0.037 ± 0.97. As to RNFFDLCGTSKRRMRIS, the amyloid nucleation score was -0.15 ± 0.47. Next, LVCVGTGSGMFEHRAIMMLV: -0.174 ± 0.51; FSTVILSAYSAFSFGIYLLS: 1.46 ± 0.33; RTIHAIERDDCLRGNSGKNN: 1.12 ± 0.57.

SCHIKK showed an amyloid nucleation score of 0.12 ± 0.39. With PWCSKQEGTRMWGMYGAPGG the figure was 0.162 ± 0.62. Next, GDSLTLTLFRIIYIGFRTDY: -1.03 ± 0.44. Next, YWWKMLERQTRS: 0.374 ± 0.9. FVVSDIMGDLRKM showed an amyloid nucleation score of 1.38 ± 0.71. With HDSLMRSGSFNTSVTVEY the figure was 0.843 ± 0.55; with GALGWWSSFVCEEAGKLTLR, 0.792 ± 0.48. QGSSSGITQFGMPTYLGIIC came in with an amyloid nucleation score of 0.61 ± 0.47.

With LWFLNRRLVKQSYG, the amyloid nucleation score was 0.606 ± 0.38. Next, NLFCRRMSSDWALKSELSNH: 0.708 ± 0.36; IVSNAIIPTGEG: 0.283 ± 0.71. Substance RHVVRR had an amyloid nucleation score of 0.441 ± 0.36. On to WVLKL, for which the amyloid nucleation score was 0.916 ± 0.54. In turn, SLACRVGKYNHSYLSSLV showed an amyloid nucleation score of 0.583 ± 0.4. Next, YVFFCIHTVGTPLGNCSIDV: “inactive”.

Substance GLVHEAHLDANKFFH showed an amyloid nucleation score of -0.139 ± 0.71. With DGSVGFLMLEVCLWHSFLAC the entry was “inactive”; with IYKVEFLTCFLDEGGWSPKV, -0.692 ± 0.95; with VACNIGHSYVNYYCRGIILC, 0.586 ± 0.4. With WQKSWR the figure was 5.24 ± 0.074. With MDSDRVRPDESSVGLN, the amyloid nucleation score came out at 0.915 ± 0.56. With SPPTMIETGTHKASSH the figure was 0.199 ± 0.57. Consider RAPLLMSVTLLRHQFCTRME, for which the amyloid nucleation score amounted to 1.8 ± 0.21.

LTPNVFAL: the amyloid nucleation score was -0.345 ± 0.3. Next, KEILVGLPMGGVRGCGSSSG: 0.505 ± 1.2; MRNKKRPSRLVIGRLGNGFS: -0.079 ± 0.84. As for YSCPNLIWA, the amyloid nucleation score was -0.424 ± 0.38. For the substance GYGLSAL, the amyloid nucleation score is 1.08 ± 0.73. Next, IWTFRYVFRIFTCSDGTMVH: -0.108 ± 0.42.

NLGVVSIHDRHRYVAKVYSS registered an amyloid nucleation score of 0.844 ± 0.5. With TISCSSYDMWWCFTEAKSTM the entry was “inactive”; with VSLAAPGCGFGCQRSRGASQ, 0.013 ± 1.1. The substance YADWLEDCETVP gave an amyloid nucleation score of -0.309 ± 0.45.

Take CYALNWCRLPALHSFFQCRK: the amyloid nucleation score stood at 0.853 ± 0.65.

Take GLVHYMLLDPLAVNLSGCND: the amyloid nucleation score was -0.301 ± 0.3. For the substance QHIPGDCFYHCCQFHCAQKE, the amyloid nucleation score was 0.818 ± 0.77. With GCSVAASSESNNRSQQVGLT the figure was 1.02 ± 0.84; with GHYRFVSFRFSWAEGAQLRG, 1.68 ± 0.25; with LCLFFGLHLWVWMRKACCY, -0.205 ± 0.31. The substance SGKSNSKPALEYYVSFFIDL had an amyloid nucleation score of -0.52 ± 0.55.

On to IEGDFEFGVNVSRAARDMRV, for which the amyloid nucleation score is -0.856 ± 0.94. Next, CLILTRCVSYGRPMTACLVL: 0.16 ± 0.56; FSKQTPVASEG: “inactive”. Next, LLVNGLMGMWPIFII: -1.03 ± 2.4; CQYVFVCRHFFLGKNHEALE: -0.462 ± 0.86. SNPYVWDVPLSRLWFVSWEL displayed an amyloid nucleation score of 0.068 ± 0.65.

(Values after the supplement of paper PMC12042874.)
